Measured values: paper PMC10873203

Molecular target: recombinant extracellular domain of human insulin receptor (human)
Experiment: SDS-PAGE under non-reducing and reducing conditions (Coomassie); 0.5 µg ECD-IR in Laemmli buffer with or without 2.5% 2-mercaptoethanol, 80 °C 10 min

**Q.** With “recombinant extracellular domain of human insulin receptor” as the substance, how does the stoichiometry N read?
**A.** 2
